Values of other authors, collected in publication PMC8538444.

Target: SP-BN N-terminal saposin-like segment of the SP-B proprotein (Homo sapiens) (UniProt P07988)
Chain of UniProt P07988 (P07988 65-147): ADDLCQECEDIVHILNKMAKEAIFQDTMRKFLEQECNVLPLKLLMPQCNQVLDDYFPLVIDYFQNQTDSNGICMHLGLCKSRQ

Kd: 400 nM
Substance: SP-A (from UniProt Q8IWL2)
